The values that follow come from patent US20220307010A1 (published 2022).

The target in test [1] is TIGIT55-14.
Test [2] concerns the target TIGIT55-11.
The target of test [3] is TIGIT55-01.
Test [4] has as its target TIGIT55-06.
Test [5] has as its target TIGIT55-08.
The target of test [6] is TIGIT55-13.
Test [7] deals with TIGIT55-05.

B1: hTIGIT (receptor)
chain: MMTGTIETTGNISAEKGGSIILQCHLSSTTAQVTQVNWEQQDQLLAICNADLGWHISPSFKDRVAPGPGLGLTLQSLTVNDTGEYFCIYHTYPDGTYTGRIFLEVLESSVAEHGARFQIP
modifications: biotinylated antigen (site not given)
As usually defined, the Kd is the equilibrium constant for the complex coming apart. The low end stands for a tighter complex, the high end for a looser complex. As to B1, the dissociation constant (Kd) worked out at 139 nM in test [1]; 327 nM in test [2]; 15.9 nM in test [3]; 153 nM in test [4]; 113 nM in test [5]; 112 nM in test [6]. The molecule also gave a Kd in test [7] of 97.6 nM.
